Source: patent publication US20200316121A1 (published 2020)

What was measured:
Test in all cases: activation reporter or marker
[1] = target: T1, p53 R248W peptide on HLA-A*68:01 (human)
T1 peptide: SSCMGGMNWR

[2] = target: T2, p53 Y220C peptide on HLA-DRB1*04:01:01 (human)
T2 peptide: RNTFRHSVVVPCE

[3] = target: T3, p53 wild type (Y220) peptide on HLA-DRB1*04:01:01 (human)
T3 peptide: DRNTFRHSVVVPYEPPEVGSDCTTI

B1: 4266-TCR2 (TCR, V domains shown)
Valpha: GQNIDQPTEMTATEGAIVQINCTYQTSGFNGLFWYQQHAGEAPTFLSYNVLDGLEEKGRFSSFLSRSKGYSYLLLKELQMKDSASYLCAVYTGGFKTIFGAGTRLFVKA
Vbeta: EAGVAQSPRYKIIEKRQSVAFWCNPISGHATLYWYQQILGQGPKLLIQFQNNGVVDDSQLPKDRFSAERLKGVDSTLKIQPAKLEDSAVYLCASNLGGGSTDTQYFGPGTRLTVL
[1]
  binding result: recognises

B2: 4266-TCR4 (TCR, V domains shown)
Valpha: GQNIDQPTEMTATEGAIVQINCTYQTSGFNGLFWYQQHAGEAPTFLSYNVLDGLEEKGRFSSFLSRSKGYSYLLLKELQMKDSASYLCAVYPGGSQGNLIFGKGTKLSVKP
Vbeta: EAGVAQSPRYKIIEKRQSVAFWCNPISGHATLYWYQQILGQGPKLLIQFQNNGVVDDSQLPKDRFSAERLKGVDSTLKIQPAKLEDSAVYLCASSLGTGSTDTQYFGPGTRLTVL
[1]
  binding result: recognises

B3: 4259-F6-TCR (TCR, V domains shown)
Valpha: QKEVEQNSGPLSVPEGAIASLNCTYSDRGSQSFFWYRQYSGKSPELIMFIYSNGDKEDGRFTAQLNKASQYVSLLIRDSQPSDSATYLCAWNSGGSNYKLTFGKGTLLTVNP
Vbeta: NAGVTQTPKFRVLKTGQSMTLLCAQDMNHEYMYWYRQDPGMGLRLIHYSVGEGTTAKGEVPDGYNVSRLKKQNFLLGLESAAPSQTSVYFCASSYSQAWGQPQHFGDGTRLSIL
[2]
  binding result: recognises
[3]
  binding result: no recognition

B4: 4266-TCR3 (TCR, V domains shown)
Valpha: GQNIDQPTEMTATEGAIVQINCTYQTSGFNGLFWYQQHAGEAPTFLSYNVLDGLEEKGRFSSFLSRSKGYSYLLLKELQMKDSASYLCAFYYGGSQGNLIFGKGTKLSVKP
Vbeta: GAGVSQSPRYKVAKRGQDVALRCDPISGHVSLFWYQQALGQGPEFLTYFQNEAQLDKSGLPSDRFFAERPEGSVSTLKIQRTQQEDSAVYLCASSFGSGSTDTQYFGPGTRLTVL
[1]
  binding result: recognises
